This is an account of results in patent US20120263734A1 (THERACLONE SCIENCES, published 2012).

Where a chain is given by its changes, count along the chain named.

This assay deals with GPCMV gB (glycoprotein B of Guinea Pig CMV strain V545/82) (guinea pig CMV (GPCMV)). Description: cell-based or functional assay.

B1: 2N9 human anti-CMV antibody (antibody, V domains shown)
VH: QVQLVESGGGVVQPGRSLRLSCAASGFTFSSNGIHWVRQAPGKGLDWVAVISSDANDKQYADSVKGRFTISRDNSKNMVYLQMNSLRVEDTAVYFCARDGTCSGGNCYSGLIDYWGRGILVTVSS
VL: EIVLTQSPATLSLSPGERATLSCRASQSVGGYLAWYQQKPGQAPRLLIYDASIRATGIPARFSGSGSGTDFTLTISSLEPEDFAVYYCHQRSNWPPLTFGGGTKVDIKR
Regarding B1, the “neutralization of GPCMV V545/82 entry into JH4 cells (highest concentration tested, no effect)” value was over 300 µg/mL.

B2: 5P9 human anti-CMV antibody (antibody, V domains shown)
VH: QVQLVESGGGVIQPGRSLRLSCVASKFIFSNHGIHWVRQAPGKGLEWVAVISKDGTNAHYADSVRGRFSISRDNSKDTVFLEMRSLRPEDTAVYYCAREGRCIEEKCYSGQIDYWGQGSLVTVSS
VL: B1 VL with V3L, G31R, L33M, K39R, E79Q, P80T, V85I, H89Q, N93S, D106E
As for B2, the “neutralization of GPCMV V545/82 entry into JH4 cells (highest concentration tested, no effect)” value is over 300 µg/mL.

B3: 2F10 human anti-CMV antibody (antibody, V domains shown)
VH: QVHLVESGGGVVQPGRALRLSCAATGFTFSNHGIHWVRQAPGKGLEWLAVISSDGDDDRYADSVKGRFSVSRDNSKNTVHLQMNGLRPDDTAIYFCARDGRCGEPKCYSGLPDYWGRGTLVTVSS
VL: B1 VL with E17D, I48L, I53N, V85L, H89L, S92N, N93T, D106E
As for B3, the “neutralization of GPCMV V545/82 entry into JH4 cells (highest concentration tested, no effect)” value was over 300 µg/mL.

B4: 4P12 human anti-CMV antibody (antibody, V domains shown)
VH: B2 VH with K106N
VL: B1 VL with V3L, G31R, L33M, K39R, E79Q, V85I, H89Q, N93S, D106E
B4: the “neutralization of GPCMV V545/82 entry into JH4 cells (highest concentration tested, no effect)” value was over 300 µg/mL.
